# Data reported in publication PMC7374751, “TIMP-3 facilitates binding of target metalloproteinases to the endocytic receptor LRP-1 and promotes scavenging of MMP-1” (Scientific Reports, 2020).
# T1: catalytic domain of human MMP-1 (MMP-1ΔC) (human, UniProt P03956 100-269)
# T1 construct: catalytic domain of human MMP-1 (lacks the hemopexin domain); pro-domain removed with APMA
# T1 sequence (looked up): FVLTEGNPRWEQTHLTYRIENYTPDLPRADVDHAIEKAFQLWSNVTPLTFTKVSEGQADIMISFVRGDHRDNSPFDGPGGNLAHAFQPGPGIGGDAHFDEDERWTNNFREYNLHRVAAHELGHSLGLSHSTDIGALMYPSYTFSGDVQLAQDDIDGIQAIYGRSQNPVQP
# T2: FLAG-tagged ADAMTS-4 lacking the C-terminal spacer domain (ADAMTS4-2) (UniProt O75173 213-685)
# T2 construct: ADAMTS-4 lacking the C-terminal spacer domain
# T2 sequence (looked up): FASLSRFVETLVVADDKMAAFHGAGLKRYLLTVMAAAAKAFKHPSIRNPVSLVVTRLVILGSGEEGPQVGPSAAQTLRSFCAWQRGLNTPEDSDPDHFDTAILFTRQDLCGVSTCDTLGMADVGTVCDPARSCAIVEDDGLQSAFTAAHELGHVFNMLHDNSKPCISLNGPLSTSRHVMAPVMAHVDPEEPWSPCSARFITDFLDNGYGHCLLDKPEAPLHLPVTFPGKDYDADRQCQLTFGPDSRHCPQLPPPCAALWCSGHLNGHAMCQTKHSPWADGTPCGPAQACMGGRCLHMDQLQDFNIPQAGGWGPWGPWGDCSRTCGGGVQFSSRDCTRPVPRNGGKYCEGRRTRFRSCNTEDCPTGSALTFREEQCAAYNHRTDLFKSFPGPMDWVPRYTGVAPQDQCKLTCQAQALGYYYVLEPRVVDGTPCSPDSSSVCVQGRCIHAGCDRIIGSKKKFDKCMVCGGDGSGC
# B1: FLAG-tagged TIMP-3 (natural protein, UniProt P35625 24-211, looked up)
# chain: CTCSPSHPQDAFCNSDIVIRAKVVGKKLVKEGPFGTLVYTIKQMKMYRGFTKMPHVQYIHTEASESLCGLKLEVNKYQYLLTGRVYDGKMYTGLCNFVERWDQLTLSQRKGLNYRYHLGCNCKIKSCYYLPCFVTSKNECLWTDMLSNFGYPGYQSKHYACIRQKGGYCSWYRGWAPPDKSIINATDP
# notes: also called T3; [35S]TIMP-3
# Columns and labels:
# Assay in all cases: enzyme inhibition kinetics (fluorogenic peptide substrates); apparent Ki; enzyme pre-incubated with TIMP-3 (0.5-100 nM) 1 h at 37 °C, equilibrium rate of substrate hydrolysis; TNC buffer (50 mM Tris-HCl pH 7.5, 150 mM NaCl, 10 mM CaCl2, 0.05% Brij-35, 0.02% NaN3), 37 °C; tight-binding equation
# Details in all cases: both partners purified
# ADAM17 ectodomain = biological target: T3, ADAM17 ectodomain (UniProt P78536 215-671)
# T3 construct: ADAM17 ectodomain from R&D Systems; source: bought: R&D Systems
# T3 sequence (P78536 215-671): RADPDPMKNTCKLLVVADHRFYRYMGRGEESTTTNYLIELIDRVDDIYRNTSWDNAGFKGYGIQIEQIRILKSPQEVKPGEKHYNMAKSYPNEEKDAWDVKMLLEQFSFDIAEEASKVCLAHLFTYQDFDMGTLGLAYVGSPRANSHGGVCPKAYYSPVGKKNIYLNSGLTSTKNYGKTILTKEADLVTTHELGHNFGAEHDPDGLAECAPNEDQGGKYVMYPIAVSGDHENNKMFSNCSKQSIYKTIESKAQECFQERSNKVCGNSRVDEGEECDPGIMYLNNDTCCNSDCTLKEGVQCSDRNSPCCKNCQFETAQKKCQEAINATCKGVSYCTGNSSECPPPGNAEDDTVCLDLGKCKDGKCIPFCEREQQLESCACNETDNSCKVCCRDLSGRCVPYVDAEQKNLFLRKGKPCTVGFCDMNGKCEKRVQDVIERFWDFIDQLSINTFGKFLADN
# [1] = biological target: T4, MMP-13 (active enzyme of the inhibition assays) (UniProt P45452 20-471)
# T4 construct: MMP-13 whose activity was measured (0.1 nM)
# [2] = biological target: T1, catalytic domain of human MMP-1 …
# [3] = biological target: T2, FLAG-tagged ADAMTS-4 lacking the …
binder,measurement,setting,value
B1,Ki,ADAM17 ectodomain,3.61 nM
same,Ki,[1],< 0.5 nM
same,Ki,[2],1.86 nM
same,Ki,[3],1.24 nM
